Entries after “also recorded” stand apart in the source; their conditions may differ.
Columns and labels:
[1] = system: acute kidney injury produced by gentamicin; assay: Acute kidney injury produced by gentamicin; conditions: for urinary flow: administered separately, vs control group (C); for reactive bands to the anti KIM-1 antibody in the urine / renal levels of KIM-1 (Western blot): vs controls; for survival: until the end of the experiment
[2] = system: experimental model of iodinated contrast nephropathy; assay: Contrast-induced nephropathy: Gastrografin in rats sensitized with subtoxic gentamicin; conditions: for KIM-1 in the urine (Western blot): in comparison with the controls; for general condition (appearance, mobility): throughout the experiment; for survival: until the end of the experiment (four days after contrast); for PAI-1 in the urine (Western blot): vs control group
Method: The rats were placed in individual metabolic cages where they had free access to food and drink. After two days of acclimatization, the 24-hour urine was collected in graduated cylinders. The urine collected was centrifuged during 8 minutes at 2,500 rpm, to clean it from residues not thereof, the clean urine was collected and it was stored at −80° C. for its later analysis.
The blood samples were obtained in capillaries with heparin by a small cut at the end of the tail. Five capillaries were extracted per rat (200 μL), and the capillaries were centrifuged in a microcentrifuge at 11,000 rpm during three minutes. Once centrifuged, the capillaries were broken with the aid of a file, by the cells-plasma limit. The plasma was extracted and stored in eppendorf tubes at −80° C. for its later analysis.
To measure kidney function, the plasma concentrations of creatinine and creatinine clearance, which is a measurement of the glomerular filtration rate, were determined. The creatinine clearance (CrCl) was calculated from the formula CrCl=UF×CrU/CrP, where UF is the urinary flow (ml/min), CrU the creatinine concentration in urine (mg/ml) and CrP the creatinine concentration in plasma (mg/ml). The creatinine concentration in urine and in plasma were measured by a semiautomatic analyser (Reflotron, Roche).
The concentration of urea in plasma was measured by specific reactive strips of a commercial kit, using a semiautomatic analyser (Reflotron, Roche).
The concentration of proteins in urine (proteinuria) was measured by Bradford's colorimetric method (Anal Biochem. 1976; 72:248-54). The urinary excretion of proteins (UEprot) in 24 hours was calculated by the formula: UEprot=Cprot×FU24 h, where Cprot is the concentration of proteins in urine (mg/mL) and FU24 h the urinary flow of 24 hours (mL/day).
For its determination a commercial kit from Roche was used, following the manufacturer's specifications, and the results were analysed with the KC-Junior software.
In the Western Blot technique, 100 μg of protein of the total of the renal tissue homogenate or a volume of urine of each animal which corresponds to the excretion fraction were loaded in a polyacrylamide gel. After separation by electrophoresis, these proteins were transferred to a PVDF membrane (Inmobilon-P #IPVH00010, Madrid, Spain), and they were hybridized with antibodies against KIM-1 (R&D Systems) and NGAL (MBL).
An experimental model of iodinated contrast nephropathy was used, consisting of the intravenous administration of the iodinated contrast Gastrografin (Bayer C. N. 909622 EXO) to rats predisposed to suffering acute kidney failure.
The experiment was performed on 32 male Wistar rats of around 220 grams in weight. The environmental conditions of the animals were kept constant: temperature of around 20° C., humidity of approximately 60% and daily light period (photoperiod) of 12 hours.
Six experimental groups were considered in the design study:
Control group (C): rats administered saline solution (n=5).
Cardiotrophin group (CT-1): rats administered cardiotrophin i.v. (100 μg/Kg/day) the day before the administration of the contrast and in the four subsequent days (n=5).
Gastrografin group (Gg): rats administered a single dose of iodinated agent i.v. (10 mL/Kg; […]) (n=5).
The animals were housed in metabolic cages in order to collect the urine free of faeces. Likewise, a blood sample was obtained every day (0.150 ml) from the tail in heparized capillaries.
At the end of the experiments (four days after administration of the iodinated contrast) the rats were anaesthetized and, later, they were perfused with heparinized saline solution. The kidneys were obtained from these animals and part of the samples was introduced in formol to perform histological studies whilst another part was ultrafrozen for the tissue studies.
The studies performed were the following:
Plasma creatinine, Plasma urea, proteinuria, microalbuminuria
Creatinine clearance in metabolic cages

[3] = system: rats subjected to 60 minutes of left renal ischemia; assay: Acute kidney injury produced by renal ischemia/reperfusion (60 minutes of left renal ischemia); assay type: in vivo
[4] = system: cisplatin-induced kidney injury; assay: Acute kidney injury produced by cisplatin; assay type: in vivo, Wistar rats
Method: The urinary flow (mL/day) was evaluated measuring the graduated receptacles containing the 24-hour urine in the metabolic cages as indicated in the obtainment of urine.
The experiment was performed in 24 male Wistar rats of around 220 grams in weight.
The animals were divided in 4 experimental groups, comprising 6 rats per group. […] The experimental design was developed as described below:
Group I (Control, C, n=6 animals) animals treated with vehicle via i.v. during 7 days.
Group II (Cardiotrophin-1, CT-1, n=6 animals) animals administered a daily dose of cardiotrophin-1 of 100 μg/kg body weight via i.v. during 7 days.

[5] = agents without CT-1 protection or alone, vs control
[6] = 4 hours after reperfusion, elevation induced by IR
[7] = group Gg+G+CT-1, CT-1 100 μg/Kg/day i.v.

gentamicin [reference compound]
urinary flow [1]: Neither G nor CT-1, administered separately, modified the urinary flow
general condition (appearance, mobility) ([1]; agent alone): more deteriorated appearance, reduced mobility and slight colouring of the hair
proteinuria ([1]; agent alone): high proteinuria
reactive bands to the anti KIM-1 antibody in the urine ([1]; agent alone): clear increase
renal levels of KIM-1 (Western blot) ([1]; agent alone): clear increase
liver weight (with respect to the body weight) ([1]; at the time of sacrifice): tendency for relative weight reduction
renal and urinary NGAL (Western blot) ([1]; end of treatments): induce an increase
renal cortex histology (hematoxylin-eosin) ([1]; gentamicin alone, end of treatments): massive tubular necrosis
survival [1]: one animal from each group died
body weight ([1]; vs control and CT-1 groups): slight decrease
proteinuria [2, 5]: did not alter
KIM-1 in the urine (Western blot) [2]: produced no effect
general condition (appearance, mobility) [2]: healthy appearance and normal mobility
survival [2]: all animals survived until the end of the experiment
PAI-1 in the urine (Western blot) [2]: not different from the control group animals

B1: CT-1: cytokine belonging to the interleukin 6 family; recombinant human CT-1 or rat cardiotrophin-1 administered i.v. (protein, UniProt Q16619 1-201, looked up)
Cardiotrophin-1: MSRREGSLEDPQTDSSVSLLPHLEAKIRQTHSLAHLLTKYAEQLLQEYVQLQGDPFGLPSFSPPRLPVAGLSAPAPSHAGLPVHERLRLDAAALAALPPLLDAVCRRQAELNPRAPRLLRRLEDAARQARALGAAVEALLAALGAANRGPRAEPPAATASAASATGVFPAKVLGLRVCGLYREWLSRTEGDLGQLLPGGSA
decrease of plasma levels of IL-6 after ischemia and reperfusion ([3]; 4 hours after reperfusion): not observed
decrease of plasma levels of IL-10 after ischemia and reperfusion ([3]; 4 hours after reperfusion): not observed
plasma levels of IFN-γ [3, 6]: blocked the elevation
plasma levels of IL-1β [3, 6]: blocked the elevation
plasma levels of TNF-α [3, 6]: blocked the elevation
obstructed tubules and vacuolated cells (histology) ([3]; 24 hours after reperfusion, vs control kidneys): less abundant
creatinine clearance ([3]; 48 hours after I/R, vs IR C): significantly higher
plasma creatinine ([3]; 48 hours after I/R, vs IR C, no significant differences vs simulated group): markedly lower
denuded tubules and inflammatory infiltration (histology) ([3]; 48 hours after reperfusion, vs control kidneys): less abundant
mortality ([3]; 14 days after the I/R, CT-1 400 μg/kg, untreated ischemic group 40%): 20%
acute kidney injury induced by ischemia/reperfusion (conclusion) ([3]; also decrease in kidney function, oxidative stress and inflammation): prevents acute kidney injury
renal levels of superoxide anion (SOA) ([3]; four hours after reperfusion, vs ischemic control group, significantly greater than simulated group): significantly less
gentamicin-induced symptoms (appearance, mobility, hair) in group G+CT-1 ([1]; CT-1 100 μg/kg/day i.v. 7 days + gentamicin 150 mg/kg/day i.p. 6 days): significantly reduced
effect on the decrease in creatinine clearance produced by G ([1]; CT-1 together with G): partially reversed
effect on the increase in plasma creatinine produced by G ([1]; CT-1 together with G): partially reversed
effect on the increase in plasma urea concentration produced by G ([1]; CT-1 together with G): partially reversed
effect on the proteinuria produced by G ([1]; CT-1 together with G): partially reversed
urinary flow [1]: Neither G nor CT-1, administered separately, modified the urinary flow
creatinine clearance ([1]; agent alone): did not alter
general condition (appearance, mobility) ([1]; agent alone): healthy appearance and normal mobility
plasma creatinine ([1]; agent alone): did not alter
proteinuria ([1]; agent alone): did not alter
urea plasma concentration ([1]; agent alone): did not alter
reactive bands to the anti KIM-1 antibody in the urine ([1]; agent alone): does not produce any effect
renal levels of KIM-1 (Western blot) ([1]; agent alone): does not produce any effect
liver weight (with respect to the body weight) ([1]; at the time of sacrifice): certain hepatomegaly
spleen weight (with respect to the body weight) ([1]; at the time of sacrifice): marked splenomegaly
systolic blood pressure (SBP) ([1]; basal vs end of treatments (d 6)): not observed
extension of gentamicin tubular damage under cotreatment (histology) ([1]; cotreatment with CT-1): moderately and partially prevents the extension of tubular damage
renal and urinary NGAL (Western blot) ([1]; end of treatments): induce an increase
effect on the increase in NAG excretion produced by G ([1]; especially the submaximal of the first days): reduces this increase
effect on the increase in KIM-1 expression in the kidney that G produces ([1]; group G+CT-1): does not appreciably decrease
effect on the weight loss produced by G ([1]; group G+CT-1): partially mitigated
upper band (approx. 90 kDa) of KIM-1 in the urine under G with CT-1 ([1]; group G+CT-1): partially decreases
effect on acute kidney injury produced by gentamicin (conclusion) ([1]; recombinant human CT-1 i.v. 100 μg/kg/day, 7 days): protective effect
survival [1]: all animals survived until the end of the experiment
body weight ([4]; agent alone, vs control group): without apparent differences; also recorded: does not show changes
plasma creatinine ([4]; agent alone, vs control group): does not reflect changes
cisplatin-induced reduction in body weight under joint treatment ([4]; cardiotrophin-1 100 μg/kg i.v. 7 days + cisplatin 6 mg/kg i.p., vs cisplatin): significantly less
cisplatin-induced increase in plasma creatinine under joint treatment ([4]; cardiotrophin-1 100 μg/kg i.v. 7 days + cisplatin 6 mg/kg, vs cisplatin): significantly less
physical condition during coadministration with cisplatin ([4]; cardiotrophin-1 + cisplatin): spectacular improvement
cisplatin-induced increase in final kidney weight under joint treatment ([4]; cardiotrophin-1 + cisplatin, vs cisplatin): substantially less
effect on cisplatin-induced kidney injury (conclusion) ([4]; rat cardiotrophin-1 100 μg/kg/day i.v. 7 days, cisplatin 6 mg/kg): protective effect
survival ([4]; throughout the experimental period, vs control group): does not modify the survival
urinary flow under joint administration with cisplatin ([4]; without significant differences vs control and cardiotrophin-1 groups): constant evolution
creatinine clearance [2, 5]: did not alter
plasma concentration of creatinine [2, 5]: did not alter
proteinuria [2, 5]: did not alter
urea plasma concentration [2, 5]: did not alter
effect on the RPF decrease produced by Gg+G ([2]; co-treatment with CT-1): reversal
effect on the RVR increase produced by gentamicin and gastrografin ([2]; coadministration of CT-1): counteracted the increase
PAI-1 in the urine under Gg+G with CT-1 ([2]; group Gg+G+CT-1): does not appear
effect on the GFR decrease produced by Gg+G ([2]; group Gg+G+CT-1): reversed
effect on the NAG increase produced by Gg+G ([2]; group Gg+G+CT-1): reduced this increase
effect on the decrease in creatinine clearance produced by Gg+G [2, 7]: partially reversed
effect on the increase in plasma concentration of creatinine produced by Gg+G [2, 7]: partially reversed
effect on the increase in plasma urea produced by Gg+G [2, 7]: partially reversed
effect on the proteinuria produced by Gg+G [2, 7]: partially reversed
KIM-1 in the urine (Western blot) [2]: produced no effect
deterioration of renal excretory function and intensity of tubular damage (conclusion) ([2]; recombinant human CT-1 i.v. 100 μg/kg/day, contrast nephropathy in animals sensitized with gentamicin): reduces
general condition (appearance, mobility) [2]: healthy appearance and normal mobility
survival [2]: all animals survived until the end of the experiment
effect on the increase in KIM-1 expression produced by Gg+G ([2]; urine, Western blot, group Gg+G+CT-1): considerably decreases the increase
PAI-1 in the urine (Western blot) [2]: not different from the control group animals

Source: patent US20140170125A1, “USE OF CARDIOTROPHIN-1 FOR THE TREATMENT OF KIDNEY DISEASES” (DIGNA Biotech, S.L., priority 2011, published 2014)
